# Positions count from the first letter of the chain named. Numbers in names are those of the source.
# B1: ctPrp43 + ctPfa1-GP (Thermochaetoides thermophila DSM 1495; F181C/N623C) (protein)
# chain: MADITKGTKRLSGEAEGSQDSKRVKTNGDKMDAKNPYLAHLEEKPEADFESLLDKLERRNTTAKQAEAVEDSDINPWTGQRHSERYFKILKARRKLPVNKQRQEFLDLYHNNQILVFVGETGSGKTTQIPQYVLYDELPHQTGKLIACTQPRRVAAMSVAQRVADELDVKLGEEVGYSIRCENKTSSKTLLKYMTDGQLLREAMHDRDMSRYSCIILDEAHERTLATDILMALLKQLSERRKDLKIIVMSATLDAQKFQSYFFNAPLLAVPGRTHPVEIFYTPEAERDYVEAAIRTVLQIHACEPEGDILLFLTGEEEIEDACRRISLEVDEMIRESDAGPMSVYPLYGTLPPHQQQRIFEKAPQPFRPGGRPGRKCIVATNIAETSLTIDGIVYVVDPGFSKQKIYNPRTRVESLLVSPISKASAQQRAGRAGRTRPGKCFRLYTEEAFKKELIEQTYPEILRSNLSNTVLELKKLGVEDLVHFDLMDPPAPETMMRALEELNYLACLDDDGELTPLGNLASEFPLDPALAVMLISSPEFYCSNEILSITSLLSVPQIWVRPANARKRADEMKAQFAHPDGDHLTLLNAYHAYKGAEARGEDMKKWCHEHFLSYRHLSSADCVRAQLKKIMETHGIELVSTPFHDKNYYTNIRRALLAGFFMQVAMRESSNSKVYKTVKDEQLVLIHPSTTVTTPYEWVVYNEFVLTTKQYVRTVTNIRPEWLLEIAPVYYDLSTFQKGEIKNALTRVAEKIRRQQAMKASKA
# notes: full-length Prp43 (GST tag removed) plus G-patch fragment ctPfa1(662-742) in five-fold excess, both recombinant, tags cut; with Uncharacterized protein (G-patch protein Pfa1)
# B2: ctPrp43 (Thermochaetoides thermophila DSM 1495; F181G/R180G/T350G/Y348G) (protein)
# chain: B1 chain with R180G, C181G, Y348G, T350G, C623N
# notes: full length (residues 1-764), recombinant, GST tag removed, expressed as previously described
# B3: ctPrp43 (Thermochaetoides thermophila DSM 1495; T350G/Y348G) (protein)
# chain: B1 chain with C181F, Y348G, T350G, C623N
# notes: as for B2
# B4: ctPrp43 (Thermochaetoides thermophila DSM 1495; F181C/N623C) (protein)
# chain: B1 chain
# notes: as for B2
# B5: ctPrp43 + ctPfa1-GP (Thermochaetoides thermophila DSM 1495; F181G/R180G/T350G/Y348G) (protein)
# chain: B1 chain with R180G, C181G, Y348G, T350G, C623N
# notes: as for B1
# B6: ctPrp43 + ctPfa1-GP (Thermochaetoides thermophila DSM 1495; T350G/Y348G) (protein)
# chain: B1 chain with C181F, Y348G, T350G, C623N
# notes: as for B1
# Columns and labels:
# [1] = substrate: Nc1ncnc2c1ncn2[C@@H]1O[C@H](COP(=O)(O)OP(=O)(O)OP(=O)(O)O)[C@@H](O)[C@H]1O; assay: NADH-coupled ATPase assay (pyruvate kinase / lactate dehydrogenase); type: biochemical, Thermochaetoides thermophila; details: no RNA, ctPfa1-GP in five-fold excess, pH 7.5, 150 mM KCl, 3 mM MgCl2, 25 °C
# Excerpt: NADH-coupled ATPase assay (pyruvate kinase / lactate dehydrogenase) on ctPrp43 + ctPfa1-GP
# [2] = substrate: Nc1ncnc2c1ncn2[C@@H]1O[C@H](COP(=O)(O)OP(=O)(O)OP(=O)(O)O)[C@@H](O)[C@H]1O; assay: as above; type: biochemical, Thermochaetoides thermophila; details: no RNA, no G-patch, pH 7.5, 150 mM KCl, 3 mM MgCl2, 25 °C
# Excerpt: NADH-coupled ATPase assay (pyruvate kinase / lactate dehydrogenase) on ctPrp43
# [3] = ctPrp43-IDSB, mainly oxidized (internal disulfide bond)
protein,measurement,setting,value
B1,Km,[1]; [3],29.04 ± 1.35 µM
same,kcat,[1]; [3],3.32 s⁻¹
B2,Km,[2]; ctPrp43-HT&HL,16.72 ± 1.49 µM
same,kcat,[2]; ctPrp43-HT&HL,0.127 s⁻¹
B3,Km,[2]; ctPrp43-HL,14.31 ± 0.71 µM
same,kcat,[2]; ctPrp43-HL,0.103 s⁻¹
B4,Km,[2]; [3],16.23 ± 2.38 µM
same,kcat,[2]; [3],0.084 s⁻¹
B5,Km,[1]; ctPrp43-HT&HL,25.17 ± 1.37 µM
same,kcat,[1]; ctPrp43-HT&HL,1.89 s⁻¹
B6,Km,[1]; ctPrp43-HL,14.38 ± 0.89 µM
same,kcat,[1]; ctPrp43-HL,1.44 s⁻¹

# Source: PMC5262380, “Structural insights into the mechanism of the DEAH-box RNA helicase Prp43” (eLife, 2017)
